# What was measured:
# [1] = target: T1, Dfd (Deformed);Exd (Extradenticle);Hth (Homothorax) (Drosophila melanogaster?;Drosophila …, UniProt P07548;P40427;O46339 1-586;1-376;1-487, ||); assay: EMSA; 20 mM HEPES pH 7.9, 1.4 mM MgCl2, 1 mM ZnSO4, 40 mM KCl, 0.1 mM EGTA, 5% glycerol, 10 mM DTT, 0.1% NP40, 200 ng poly(dI-dC), 3 ug BSA, 2 pmol Cy5 dsDNA in 30 ul, on ice 20 min; 1% agarose-TBE gel at 4 C; conditions: protein: recombinant;recombinant;recombinant; tags: GST (pGEX-6P);His-myc;His-Flag; copies: 1;1;1; label: 5'-Cy5; blunt
# [2] = target: T2, Dfd (Deformed);Exd (Extradenticle) (Drosophila melanogaster?;Drosophila …, UniProt P07548;P40427 1-586;1-376, |); assay: EMSA; Hth presence not given; 20 mM HEPES pH 7.9, 1.4 mM MgCl2, 1 mM ZnSO4, 40 mM KCl, 0.1 mM EGTA, 5% glycerol, 10 mM DTT, 0.1% NP40, 200 ng poly(dI-dC), 3 ug BSA, 2 pmol Cy5 dsDNA in 30 ul, on ice 20 min; 1% agarose-TBE gel at 4 C; conditions: protein: recombinant;recombinant; tags: GST (pGEX-6P);His-myc; copies: 1;1; label: 5'-Cy5; blunt
# [3] = target: T1, Dfd (Deformed);Exd (Extradenticle);Hth …; assay: EMSA; binding abolished when all sites mutated; 20 mM HEPES pH 7.9, 1.4 mM MgCl2, 1 mM ZnSO4, 40 mM KCl, 0.1 mM EGTA, 5% glycerol, 10 mM DTT, 0.1% NP40, 200 ng poly(dI-dC), 3 ug BSA, 2 pmol Cy5 dsDNA in 30 ul, on ice 20 min; 1% agarose-TBE gel at 4 C; conditions: protein: recombinant;recombinant;recombinant; tags: GST (pGEX-6P);His-myc;His-Flag; copies: 1;1;1; label: 5'-Cy5; blunt
# [4] = target: T2, Dfd (Deformed);Exd (Extradenticle); assay: EMSA; Hth presence not stated; review file prints 6.85 and 6.65; 20 mM HEPES pH 7.9, 1.4 mM MgCl2, 1 mM ZnSO4, 40 mM KCl, 0.1 mM EGTA, 5% glycerol, 10 mM DTT, 0.1% NP40, 200 ng poly(dI-dC), 3 ug BSA, 2 pmol Cy5 dsDNA in 30 ul, on ice 20 min; 1% agarose-TBE gel at 4 C; conditions: protein: recombinant;recombinant; tags: GST (pGEX-6P);His-myc; copies: 1;1; label: 5'-Cy5; blunt
# T2 sequence (P07548 whole entry, chain 1 of 2): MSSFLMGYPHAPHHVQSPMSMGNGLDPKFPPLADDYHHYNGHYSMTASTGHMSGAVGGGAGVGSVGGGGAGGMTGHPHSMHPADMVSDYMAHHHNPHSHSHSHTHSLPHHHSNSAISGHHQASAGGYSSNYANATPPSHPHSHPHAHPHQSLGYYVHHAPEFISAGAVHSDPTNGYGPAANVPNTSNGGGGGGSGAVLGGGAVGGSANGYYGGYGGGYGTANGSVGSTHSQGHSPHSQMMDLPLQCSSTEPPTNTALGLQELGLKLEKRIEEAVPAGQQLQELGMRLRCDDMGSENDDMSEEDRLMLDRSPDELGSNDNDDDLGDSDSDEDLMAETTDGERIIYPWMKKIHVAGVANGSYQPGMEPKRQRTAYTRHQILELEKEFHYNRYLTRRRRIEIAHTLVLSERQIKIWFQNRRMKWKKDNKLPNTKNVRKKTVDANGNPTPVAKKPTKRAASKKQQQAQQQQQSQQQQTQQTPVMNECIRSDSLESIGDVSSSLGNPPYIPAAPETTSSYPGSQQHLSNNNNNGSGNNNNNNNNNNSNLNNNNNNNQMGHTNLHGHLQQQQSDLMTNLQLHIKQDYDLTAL
# T2 sequence (P40427 whole entry, chain 2 of 2): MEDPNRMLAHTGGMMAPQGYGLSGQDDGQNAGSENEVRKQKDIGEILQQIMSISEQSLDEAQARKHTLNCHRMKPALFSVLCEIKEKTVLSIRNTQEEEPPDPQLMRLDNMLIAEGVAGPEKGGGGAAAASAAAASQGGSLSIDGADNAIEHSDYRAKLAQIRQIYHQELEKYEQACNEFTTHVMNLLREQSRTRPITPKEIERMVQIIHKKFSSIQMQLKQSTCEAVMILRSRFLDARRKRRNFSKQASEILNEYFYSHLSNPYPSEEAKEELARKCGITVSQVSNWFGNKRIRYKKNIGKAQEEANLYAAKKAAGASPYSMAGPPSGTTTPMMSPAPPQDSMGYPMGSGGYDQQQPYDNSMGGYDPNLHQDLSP
# T1 sequence (P07548 whole entry, chain 1 of 3): as the sequence (P07548 whole entry, chain 1 of 2) above
# T1 sequence (P40427 whole entry, chain 2 of 3): as the sequence (P40427 whole entry, chain 2 of 2) above
# T1 sequence (O46339 whole entry, chain 3 of 3): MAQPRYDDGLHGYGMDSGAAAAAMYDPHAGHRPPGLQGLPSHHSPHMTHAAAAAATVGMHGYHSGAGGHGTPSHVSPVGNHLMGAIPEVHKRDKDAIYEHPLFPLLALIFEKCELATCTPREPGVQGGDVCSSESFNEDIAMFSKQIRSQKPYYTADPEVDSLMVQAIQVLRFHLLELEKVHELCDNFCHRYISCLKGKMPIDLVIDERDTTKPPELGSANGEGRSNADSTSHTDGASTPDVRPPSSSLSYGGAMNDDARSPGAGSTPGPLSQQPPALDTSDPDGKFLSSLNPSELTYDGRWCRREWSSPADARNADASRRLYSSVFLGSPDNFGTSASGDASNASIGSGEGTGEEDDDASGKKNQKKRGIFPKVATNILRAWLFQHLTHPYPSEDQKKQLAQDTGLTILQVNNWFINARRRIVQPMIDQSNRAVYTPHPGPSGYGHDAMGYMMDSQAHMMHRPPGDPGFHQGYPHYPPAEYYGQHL
Binder,binding result [1],Kd [2] [nM],other results
oligo-E-wt (site 11) (dsDNA) DNA 1: CTTCTTCGGGCACCTAATGACGCGCGTTCAACAT DNA 2: ATGTTGAACGCGCGTCATTAGGTGCCCGAAGAAG,binds,16.8,–
oligo-D-1-mt-2-H (D-9mut-10H) (dsDNA) DNA 1: TATAAAAGGCGGCATTGATTAATTAATTCTCGAT DNA 2: ATCGAGAATTAATTAATCAATGCCGCCTTTTATA,–,8.16,–
oligo-D-1-mt (D-9mut-10wt) (dsDNA) DNA 1: TATAAAAGGCGGCAAATACTAATCTATTCTCGAT DNA 2: ATCGAGAATAGATTAGTATTTGCCGCCTTTTATA,–,16.9,–
"oligo-D-wt (sites 9, 10) (dsDNA) DNA 1: TATAAAAGCCATTAAATACTAATCTATTCTCGAT DNA 2: ATCGAGAATAGATTAGTATTTAATGGCTTTTATA",binds,–,–
oligo-A-wt (site 1) (dsDNA) DNA 1: TCTCAGCCTCGATAATTAACACACAAGCGCGGGG DNA 2: CCCCGCGCTTGTGTGTTAATTATCGAGGCTGAGA,binds,–,–
oligo-B-12-mt (dsDNA) DNA 1: GACCGCAGAACCAAGCCGCCTATTGCCAGTGAAT DNA 2: ATTCACTGGCAATAGGCGGCTTGGTTCTGCGGTC,–,–,binding result [3]: no binding
oligo-E-11-H (dsDNA) DNA 1: CTTCTTCGGATGATTAATGACGCGCGTTCAACAT DNA 2: ATGTTGAACGCGCGTCATTAATCATCCGAAGAAG,–,–,Kd [4]: 6.7 nM
oligo-class-2-site (dsDNA) DNA 1: TTCAGAGCGAATGATTAATGATCGGTCAAG DNA 2: CTTGACCGATCATTAATCATTCGCTCTGAA,–,9.12,–

# — paper PMC9418327, “Specificity of the Hox member Deformed is determined by transcription factor levels and binding site affinities”
